Consider 4 molecules from patent publication US20250215072A1 (published 2025).

Positions count from the first letter of the chain named. Where two headings read alike, the source gives them in different places.

Assay [1] addresses hLTBP1-proTGFβ1 as produced in the cell-based activation assay (human, UniProt P01137 30-390; Q14766 347-1721). Kind of assay: cell-based or functional assay.
In assay [2] the target is hLTBP3-proTGFβ1 as produced in the cell-based activation assay (human, UniProt P01137 30-390; Q9NS15 44-1303). Kind of assay: cell-based or functional assay.
Assay [3] has as its target hGARP-proTGFβ1 presented on cells (human, UniProt P01137 30-390; Q14392 20-662). Kind of assay: cell-based or functional assay.
The target in assay [4] is hLRRC33-proTGFβ1 presented on cells (human, UniProt P01137 30-390; Q86YC3 19-692). Kind of assay: cell-based or functional assay.
The target of assay [5] is rat LRRC33-proTGFβ1 complex (rat, UniProt P17246 30-390; Q5BK65 25-650). Kind of assay: MSD-SET. The protocol: (§1) As an example, MSD standard plates (MSD) were coated with a 20 nM solution of monoclonal antibody in PBS for 30 min at room temperature or overnight at 4° C. […] After 20-24 hours of equilibration, the antibody-coated plate was blocked with Blocking Buffer A (MSD) for 30 minutes at room temperature and washed with wash buffer (PBS, 0.1% BSA, 0.05% Tween-20) before adding the equilibrated antibody-antigen complexes to the plate for exactly 2.5 minutes. The plate was washed again with wash buffer before adding 250 ng/ml SULFO-TAG-labeled streptavidin secondary reagent (MSD) in PBS with 0.1% BSA. After washing with wash buffer, plates were read in MSD read buffer (MSD) using the MESO QuickPlex SQ 120 (MSD). The binding data were processed by nonlinear curve fitting in Prism 7 software (Graphpad) to calculate equilibrium binding KD values.

The target of assay [6] is T1, human LRRC33-proTGFβ1 complex (human, UniProt P01137 30-390; Q86YC3 19-650).
T1 construct: also called hLRRC33-proTGFβ1; hLRRC33
Kind of assay: MSD-SET. How it is done:
as §1

For assay [7], the target named is rat LTBP1-proTGFβ1 complex (rat, UniProt P17246 30-390; Q00918 339-1712). Kind of assay: MSD-SET. The protocol: as §1
For assay [8], the target named is T2, human GARP-proTGFβ1 complex (human, UniProt P01137 30-390; Q14392 20-627).
T2 construct: also called hGARP-proTGFβ1; hGARP
Kind of assay: MSD-SET. How it is done: as §1

Assay [9] addresses T3, murine GARP-proTGFβ1 complex (mouse, UniProt P04202 30-390; G3XA59 18-628).
T3 construct: Soluble murine complex; also called mGARP-proTGFβ1
Kind of assay: MSD-SET. The protocol: as §1

Assay [10] deals with T4, murine LTBP1-proTGFβ1 complex (mouse, UniProt P04202 30-390; Q8CG19 339-1712, limits assumed).
T4 construct: also called mLTBP1-proTGFβ1
Kind of assay: MSD-SET. The protocol: as §1

Assay [11] concerns the target T1, human LRRC33-proTGFβ1 complex. Kind of assay: MSD-SET, hIgG4. How it is done:
(§2) MSD-SET assays were performed to measure affinities of the antibodies at equilibrium. Briefly, each test antibody was diluted 3-5 fold and samples were mixed with biotinylated antigen in a 48-well dish. The SET samples were equilibrated for 20-24 hours at room temperature. Meanwhile, a capture plate was coated with IgG (20 nM) and incubated overnight at 4° C. or 30 minutes at room temperature, followed by a blocking step with 5% BSA. After the capture plate was washed three times, SET samples were added and incubated for 150 seconds. The plate was washed once to remove unbound complexes. 250 ng/ml SA-Sulfotag was added then washed 3 times. 2× Read Buffer was added, and signals from the labeled bound complexes were read with the use of QuickPlex™ SQ 120 instrument.

For assay [12], the target named is T2, human GARP-proTGFβ1 complex. Kind of assay: MSD-SET, hIgG4. How it is done:
as §2

Assay [13] has as its target T1, human LRRC33-proTGFβ1 complex. Kind of assay: BLI (Octet). How it is done: (§3) The affinity of anti-TGFβ1 antibodies was measured by Octet@ assay on human proTGFβ1 cells, while activity was measured by CAGA12 reporter cells testing human proTGFβ1 inhibition.
On the technique in general: In BLI a coated tip is dipped into the sample, and binding shifts an interference pattern.

In assay [14] the target is T2, human GARP-proTGFβ1 complex. Kind of assay: BLI (Octet). How it is done: as §3
Assay [15] has as its target T1, human LRRC33-proTGFβ1 complex. Kind of assay: MSD-SET. The protocol: as §2, §1
This is another data set of the same source.

For assay [16], the target named is T2, human GARP-proTGFβ1 complex. Kind of assay: MSD-SET. How it is done:
as §2, §1
The source holds these as a separate data set.

Assay [17] concerns the target T3, murine GARP-proTGFβ1 complex. Kind of assay: MSD-SET. How it is done: as §2, §1
This is another data set of the same source.

Assay [18] has as its target T4, murine LTBP1-proTGFβ1 complex. Kind of assay: MSD-SET. How it is done:
as §2, §1
This is another data set of the same source.

Assay [19] addresses T3, murine GARP-proTGFβ1 complex. Kind of assay: BLI screen of library antibodies.

One may read the Kd as a measure of binding affinity in units of concentration. Read a high Kd as lower affinity.

Chain of hLRRC33-proTGFβ1 presented on cells (P01137 30-390 limits assumed, chain 1 of 2): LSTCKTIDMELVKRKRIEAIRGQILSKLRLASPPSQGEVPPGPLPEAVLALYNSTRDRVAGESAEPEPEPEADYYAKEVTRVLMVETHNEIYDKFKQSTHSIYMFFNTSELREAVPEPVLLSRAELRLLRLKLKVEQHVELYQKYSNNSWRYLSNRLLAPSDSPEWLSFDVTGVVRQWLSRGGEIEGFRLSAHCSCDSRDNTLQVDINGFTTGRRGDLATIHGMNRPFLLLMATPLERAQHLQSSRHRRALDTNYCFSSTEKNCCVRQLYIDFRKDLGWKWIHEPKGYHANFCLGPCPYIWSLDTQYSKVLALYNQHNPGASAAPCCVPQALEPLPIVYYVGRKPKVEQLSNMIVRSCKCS
Chain of hLRRC33-proTGFβ1 presented on cells (Q86YC3 19-692 limits assumed, chain 2 of 2): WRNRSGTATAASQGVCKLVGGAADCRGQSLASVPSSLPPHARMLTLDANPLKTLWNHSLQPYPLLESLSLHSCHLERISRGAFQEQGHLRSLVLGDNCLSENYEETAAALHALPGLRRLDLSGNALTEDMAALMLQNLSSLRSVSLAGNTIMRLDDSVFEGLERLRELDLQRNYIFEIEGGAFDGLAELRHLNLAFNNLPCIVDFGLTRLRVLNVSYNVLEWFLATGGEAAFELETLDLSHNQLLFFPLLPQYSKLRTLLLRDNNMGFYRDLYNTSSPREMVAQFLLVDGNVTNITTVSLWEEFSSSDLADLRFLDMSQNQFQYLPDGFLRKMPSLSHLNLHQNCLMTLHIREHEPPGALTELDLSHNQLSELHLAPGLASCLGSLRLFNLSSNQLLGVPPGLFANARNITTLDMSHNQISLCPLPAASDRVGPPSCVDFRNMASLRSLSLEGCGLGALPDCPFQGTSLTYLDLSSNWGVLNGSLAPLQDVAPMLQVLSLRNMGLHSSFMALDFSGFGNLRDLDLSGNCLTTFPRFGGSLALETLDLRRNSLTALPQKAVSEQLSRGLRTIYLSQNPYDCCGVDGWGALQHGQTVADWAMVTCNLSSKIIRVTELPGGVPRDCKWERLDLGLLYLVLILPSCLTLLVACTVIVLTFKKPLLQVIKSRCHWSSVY
Chain of hLTBP3-proTGFβ1 as produced in the cell-based activation assay (P01137 30-390 limits assumed, chain 1 of 2): as the sequence (P01137 30-390 limits assumed, chain 1 of 2) above
Chain of hLTBP3-proTGFβ1 as produced in the cell-based activation assay (Q9NS15 44-1303 limits assumed, chain 2 of 2): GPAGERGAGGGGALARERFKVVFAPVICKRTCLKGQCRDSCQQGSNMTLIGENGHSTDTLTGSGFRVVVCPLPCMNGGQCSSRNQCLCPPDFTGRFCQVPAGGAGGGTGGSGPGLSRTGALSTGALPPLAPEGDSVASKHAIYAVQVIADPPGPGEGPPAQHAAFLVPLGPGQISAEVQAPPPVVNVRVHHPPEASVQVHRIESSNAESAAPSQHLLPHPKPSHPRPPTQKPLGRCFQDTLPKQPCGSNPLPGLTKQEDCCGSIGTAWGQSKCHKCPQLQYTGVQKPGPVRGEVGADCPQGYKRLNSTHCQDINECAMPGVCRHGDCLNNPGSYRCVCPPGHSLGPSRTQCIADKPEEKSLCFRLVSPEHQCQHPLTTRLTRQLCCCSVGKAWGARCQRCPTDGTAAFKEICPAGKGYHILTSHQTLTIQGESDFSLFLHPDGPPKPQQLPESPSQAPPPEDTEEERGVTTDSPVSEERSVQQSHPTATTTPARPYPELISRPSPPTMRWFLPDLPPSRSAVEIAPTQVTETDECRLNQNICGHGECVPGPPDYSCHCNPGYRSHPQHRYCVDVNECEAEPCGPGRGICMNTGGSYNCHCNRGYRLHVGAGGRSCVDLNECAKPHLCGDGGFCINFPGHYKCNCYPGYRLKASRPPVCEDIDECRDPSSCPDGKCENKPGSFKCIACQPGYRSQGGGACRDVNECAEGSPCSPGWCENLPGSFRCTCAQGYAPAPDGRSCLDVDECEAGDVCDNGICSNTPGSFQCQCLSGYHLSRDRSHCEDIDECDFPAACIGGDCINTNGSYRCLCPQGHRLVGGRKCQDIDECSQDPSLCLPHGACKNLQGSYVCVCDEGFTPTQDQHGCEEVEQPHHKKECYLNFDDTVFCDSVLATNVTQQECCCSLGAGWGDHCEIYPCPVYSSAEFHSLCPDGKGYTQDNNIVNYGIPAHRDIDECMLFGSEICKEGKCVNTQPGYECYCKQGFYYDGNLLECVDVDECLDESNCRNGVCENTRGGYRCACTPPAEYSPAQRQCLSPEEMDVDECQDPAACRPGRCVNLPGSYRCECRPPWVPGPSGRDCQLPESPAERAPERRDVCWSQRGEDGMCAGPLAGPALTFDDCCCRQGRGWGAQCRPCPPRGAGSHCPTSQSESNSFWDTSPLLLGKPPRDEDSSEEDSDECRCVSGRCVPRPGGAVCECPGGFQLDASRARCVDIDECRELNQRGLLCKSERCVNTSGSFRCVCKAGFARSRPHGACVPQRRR
Chain of hGARP-proTGFβ1 presented on cells (P01137 30-390 limits assumed, chain 1 of 2): as the sequence (P01137 30-390 limits assumed, chain 1 of 2) above
Chain of hGARP-proTGFβ1 presented on cells (Q14392 20-662 limits assumed, chain 2 of 2): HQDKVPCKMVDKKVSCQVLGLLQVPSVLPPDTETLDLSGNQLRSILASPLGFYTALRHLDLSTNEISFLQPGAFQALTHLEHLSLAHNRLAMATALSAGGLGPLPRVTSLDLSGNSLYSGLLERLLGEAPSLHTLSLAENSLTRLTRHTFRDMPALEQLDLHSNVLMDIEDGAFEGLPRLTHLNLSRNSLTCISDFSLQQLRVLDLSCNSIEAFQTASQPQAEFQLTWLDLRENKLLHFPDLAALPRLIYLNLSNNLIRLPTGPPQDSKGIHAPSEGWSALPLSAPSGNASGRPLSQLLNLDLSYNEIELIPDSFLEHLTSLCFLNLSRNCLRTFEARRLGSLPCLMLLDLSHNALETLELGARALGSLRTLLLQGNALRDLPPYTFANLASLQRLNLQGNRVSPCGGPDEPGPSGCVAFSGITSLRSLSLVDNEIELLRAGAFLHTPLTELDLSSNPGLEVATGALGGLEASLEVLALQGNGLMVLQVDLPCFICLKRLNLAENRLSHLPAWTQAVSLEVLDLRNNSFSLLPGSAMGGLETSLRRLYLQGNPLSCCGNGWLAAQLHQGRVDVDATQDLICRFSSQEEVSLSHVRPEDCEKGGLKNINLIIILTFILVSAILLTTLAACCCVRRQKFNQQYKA
T1 sequence (P01137 30-390 limits assumed, chain 1 of 2): as the sequence (P01137 30-390 limits assumed, chain 1 of 2) above
T1 sequence (Q86YC3 other isoform, or with tags, fused parts or gaps limits assumed, chain 2 of 2): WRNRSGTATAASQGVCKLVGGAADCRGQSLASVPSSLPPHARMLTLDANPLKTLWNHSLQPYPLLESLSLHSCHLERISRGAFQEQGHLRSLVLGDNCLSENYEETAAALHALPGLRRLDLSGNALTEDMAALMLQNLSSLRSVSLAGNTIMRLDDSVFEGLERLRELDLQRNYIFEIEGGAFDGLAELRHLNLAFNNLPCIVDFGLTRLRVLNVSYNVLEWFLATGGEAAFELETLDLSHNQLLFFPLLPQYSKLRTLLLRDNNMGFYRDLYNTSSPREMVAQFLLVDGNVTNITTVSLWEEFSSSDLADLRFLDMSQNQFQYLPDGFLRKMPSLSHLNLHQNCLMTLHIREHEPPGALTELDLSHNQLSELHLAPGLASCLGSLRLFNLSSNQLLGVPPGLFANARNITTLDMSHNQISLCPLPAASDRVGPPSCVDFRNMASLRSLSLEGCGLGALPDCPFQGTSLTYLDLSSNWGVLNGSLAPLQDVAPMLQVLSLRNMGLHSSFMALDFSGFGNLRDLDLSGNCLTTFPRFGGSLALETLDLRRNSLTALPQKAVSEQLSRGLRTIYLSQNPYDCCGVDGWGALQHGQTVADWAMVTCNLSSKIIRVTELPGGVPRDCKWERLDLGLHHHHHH
T2 sequence (P01137 30-390, chain 1 of 2): as the sequence (P01137 30-390 limits assumed, chain 1 of 2) above
T2 sequence (Q14392 20-627, chain 2 of 2): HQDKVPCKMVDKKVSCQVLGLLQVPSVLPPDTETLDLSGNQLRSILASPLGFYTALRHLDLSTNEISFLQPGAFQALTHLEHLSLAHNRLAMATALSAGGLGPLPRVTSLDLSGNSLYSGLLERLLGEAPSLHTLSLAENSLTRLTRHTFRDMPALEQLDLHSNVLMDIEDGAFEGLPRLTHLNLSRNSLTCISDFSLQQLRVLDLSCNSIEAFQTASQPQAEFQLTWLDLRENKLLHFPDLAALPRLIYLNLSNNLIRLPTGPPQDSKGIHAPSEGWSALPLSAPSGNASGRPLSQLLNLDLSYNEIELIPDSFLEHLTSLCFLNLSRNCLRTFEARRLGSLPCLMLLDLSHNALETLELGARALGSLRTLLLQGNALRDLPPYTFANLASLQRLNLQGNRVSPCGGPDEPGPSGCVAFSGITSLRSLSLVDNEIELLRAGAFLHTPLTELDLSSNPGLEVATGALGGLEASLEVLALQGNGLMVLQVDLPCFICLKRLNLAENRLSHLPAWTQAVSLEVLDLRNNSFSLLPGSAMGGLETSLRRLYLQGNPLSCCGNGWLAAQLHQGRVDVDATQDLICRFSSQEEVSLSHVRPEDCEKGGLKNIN

B1: Ab6 (antibody, V domains shown)
VH: EVQLVESGGGLVQPGGSLRLSCTASGFTFSSFSMDWVRQAPGKGLEWVSYISPSADTIYYADSVKGRFTISRDNAKNTLYLQMNSLRAEDTAVYYCARGVLDYGDMLMPWGQGTLVTVSS
VL: DIQMTQSPSSLSASVGDRVTITCQASQDITNYLNWYQQKPGKAPKLLIYDASNLETGVPSRFSGSGSGTDFTFTISSLQPEDIATYYCQQADNHPPWTFGGGTKVEIKR
B1: the “IC50, reporter cell assay” value in assay [1] is 2740 pM; in assay [2], 821 pM; in assay [3], 324 pM; in assay [4] it was 495 pM. Moreover, the Kd in assay [5] was 86 pM; in assay [6], 63 pM; in assay [7], 35 pM; in [8], 27 pM; in assay [9], 21 pM; in assay [10], 24 pM. Further, the Kd in assay [11] was 63 pM; in assay [12], 27 pM; in assay [13] it was 336 pM; in assay [14], 404 pM; in [15], 63 pM; in assay [16], 27 pM. Moreover, the Kd in assay [17] is 21 pM; in assay [18], 24 pM.

B2: Ab4 (antibody, IgG4, V domains shown)
VH: B1 VH with T23A, F32Y, D35N, P53S, A55S, D56S, T78S, M108D
VL: DIQMTQSPSSLSASVGDRVTITCQASQDITNYLNWYQQKPGKAPKLLIYDASNLETGVPSRFSGSGSGTDFTFTISSLQPEDIATYYCQQADNHPPWTFGGGTKVEIK
notes: parent of Ab6
For the molecule B2, the “IC50, reporter cell assay” value in [1] is 5220 pM; in [2] it was 5650 pM; in [3] it was 822 pM; in [4] it was 3500 pM. In addition, the Kd in [11] was found to be 2100 pM; in assay [12], 2500 pM. Besides, the binding result in assay [19] is “binds”.

B3: Ab2 (antibody, V domains shown)
VH: EVQLLESGGGLVQPGGSLRLSCAASGFTFADYAMTWVRQAPGKGLEWVSAISGSGAATYFADSVKGRFTISRDNSKNTLYLQMNSLRAEDTAVYYCARVSSGHWDFDYWGQGTLVTVSS
VL: DIQLTQSPSSLSASVGDRVTITCRASQSISSYLNWYQQKPGKAPKLLIYAASNLQSGVPSRFSGSGSGTDFTLTISSLQPEDFATYYCQQTYTVPLTFGGGTKVEIKR
B3: the “IC50, reporter cell assay” value in assay [1] is 3390 pM; in [2], 867 pM; in assay [3] it was 776 pM; in assay [4], 1380 pM. In addition, the Kd in assay [11] was determined as 3200 pM; in [12], 1400 pM; in assay [13] it was 508 pM; in assay [14], 778 pM.

B4: Ab35 (antibody, IgG4, V domains shown)
VH: B3 VH with A30R, D31N, T35S, A50S, A56G, F60Y, G102Y, H103L
VL: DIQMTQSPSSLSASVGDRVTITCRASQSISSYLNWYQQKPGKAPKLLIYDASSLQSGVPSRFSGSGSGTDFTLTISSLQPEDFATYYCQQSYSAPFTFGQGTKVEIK
For the molecule B4, the “IC50, reporter cell assay” value in assay [1] came out at 6250 pM; in assay [2], 2710 pM; in [3], 3720 pM; in assay [4] it was 5370 pM. The Kd in assay [11] turned out to be 1100 pM; in [12], 1100 pM; in [13] it was 545 pM; in assay [14] it was 7370 pM.
